Data on 2 molecules can be found in patent CN102127167A (SUZHOU IND PARK CHENJIAN ANTIBODY GROUP PHARMACEUTICAL DEV …, dated 2011).

Experiment [1] deals with T1, 人TNFα (human, UniProt P01375 77-233). The experiment can be described thus: cell-based or functional assay.
Experiment [2] concerns the target T1, 人TNFα. The experiment can be described thus: cell-based or functional assay. This is another data set of the same source.
Experiment [3] has as its target T1, 人TNFα. The experiment can be described thus: ELISA, plate coated at 0.1 ug/well, antibody dilution series.
In experiment [4] the target is T1, 人TNFα. Briefly: SPR (Biacore), TNFa coupled to the chip, antibody as analyte.

Several values for one entry are separate records, joined by “and”; a condition that tells them apart may be missing. Identical values can stand only once.

T1 sequence (P01375 77-233 limits assumed): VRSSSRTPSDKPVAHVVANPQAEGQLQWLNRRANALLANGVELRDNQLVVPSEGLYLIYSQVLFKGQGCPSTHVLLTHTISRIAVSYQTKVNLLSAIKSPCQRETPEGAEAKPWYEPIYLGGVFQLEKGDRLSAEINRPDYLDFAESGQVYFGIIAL

B1: 抗人TNFa抗体-01 (antibody, human IgG1, kappa)
heavy: not shown
light: EIVLTQSPDFQSVTPKEKVTITCRASQFVGYSIHWYQQKPDQSPKLLIKYASESRSGVPSRFSGSGSGTDFTLTINSLEAEDAATYYCQQSHSWHFTFGQGTKLEIKRTVAAPSVFIFPPSDEQLKSGTASVVCLLNNFYPREAKVQWKVDNALQSGNSQESVTEQDSKDSTYSLSSTLTLSKADYEKHKVYACEVTHQGLSSPVTKSFNRGEC
notes: also called 抗人TNFa-01; pCI-TNF-01
In the case of B1, in the experiment with 人TNFα [1], the “IC50 relative to humira, L929细胞保护试验” value was ~0.2 fold of humira IC50 and the “neutralising activity relative to humira, L929细胞保护试验” value is ~5 fold of humira. For the same molecule, in the experiment with 人TNFα [2], the “IC50(pM), L929细胞保护试验” value is 0.56 pM and 0.938 pM and 0.46 pM; the “IC50(pM), L929细胞保护试验, 平均值” value came out at 0.51 pM. Further, the “lowest detected concentration relative to humira” value with 人TNFα [3] is 0.5 fold of humira. In addition, in the experiment with 人TNFα [4], the affinity, expressed as Kd, was 0.326 nM; the koff is 0.000185 s⁻¹; the kon came out at 568000 M⁻¹ s⁻¹.

B2: 抗人TNFa抗体-02 (antibody, human IgG1, kappa)
heavy: not shown
light: B1 light
notes: Full-length human IgG1 made in CHO cells; Same doubt about plain or PEGylated form as for m1; also called 抗人TNFa-02; pCI-TNF-02
Turning to B2, in the experiment with 人TNFα [1], the “IC50 relative to humira, L929细胞保护试验” value was ~0.1 fold of humira IC50 and the “neutralising activity relative to humira, L929细胞保护试验” value is ~10 fold of humira. Besides, in the experiment with 人TNFα [2], the “IC50(pM), L929细胞保护试验” value is 0.34 pM and 0.25 pM and 0.234 pM; the “IC50(pM), L929细胞保护试验, 平均值” value is 0.275 pM. For the same molecule, the “lowest detected concentration relative to humira” value with 人TNFα [3] is 0.5 fold of humira. In the experiment with 人TNFα [4], the equilibrium dissociation constant (Kd) came to 0.33 nM, the koff was determined as 0.000188 s⁻¹ and the kon is 571000 M⁻¹ s⁻¹.
